# According to patent US20220213169A1:
# Where “and” joins values, the source holds several entries; their conditions need not be identical. Equal values may be shown once.
# T1: human ADAM8 (human) (UniProt P78325)
# T1 sequence: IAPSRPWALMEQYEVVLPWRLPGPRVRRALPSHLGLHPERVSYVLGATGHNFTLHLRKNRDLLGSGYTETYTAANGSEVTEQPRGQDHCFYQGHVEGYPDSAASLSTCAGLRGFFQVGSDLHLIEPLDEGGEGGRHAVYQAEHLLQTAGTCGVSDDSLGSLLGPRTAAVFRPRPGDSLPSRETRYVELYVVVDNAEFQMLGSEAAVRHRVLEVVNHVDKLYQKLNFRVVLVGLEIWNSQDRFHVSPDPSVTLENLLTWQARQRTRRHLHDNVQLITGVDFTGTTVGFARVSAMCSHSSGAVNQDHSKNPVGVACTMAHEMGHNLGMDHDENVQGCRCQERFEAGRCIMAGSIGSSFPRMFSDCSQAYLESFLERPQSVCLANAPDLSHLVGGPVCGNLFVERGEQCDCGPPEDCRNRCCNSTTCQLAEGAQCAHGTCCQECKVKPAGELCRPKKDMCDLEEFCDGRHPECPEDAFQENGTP
# Target: T1, human ADAM8 (human)
# Experiment: cell-based or functional assay
Binder,percent inhibition of ADAM8 (cleavage of fluorescence energy transfer substrate PEPDAB064 or PEPDAB013) (% inhibition at 5 uM),IC50 for inhibition of ADAM8 (cleavage of fluorescence energy transfer substrate PEPDAB064 or PEPDAB013),percent inhibition of ADAM8 (cleavage of fluorescence energy transfer substrate PEPDAB064 or PEPDAB013) (% inhibition at 4.8 uM)
"ADAM8 prodomain peptide SEQ ID NO: 4 (peptide, not shown: small tags and cut ends) MIAPSRPWALMEQYEVVLPRRLPGPRVRAALPSHLGLHPERVSYVLGATGHNFTLHLRKNRDLLGSGYTETYTAANGSEVTEQPRGQDHSFYQGHVEGYPDSAASLSTSAGLRGFFQVGSDLHLIEPLDEGGEGGRHAVYQAEHLLQTAGTSGVSDDSLGSLLGPRTAAVFRPRPGDSLPS",40,,
"ADAM8 prodomain peptide SEQ ID NO: 16 (peptide, not shown: small tags and cut ends) MIAPSRPWALMEQYEVVLPRRLPGPRVRRALPSHLGLHPERVSYVLGATGHNFTLHLRKNRDLLGSGYTETYTAANGSEVTEQPRGQDHCLYQGHVEGYPDSAASLSTCAGLRGFFQVGSDLHLIEPLDEGGEGGRHAVYQAEHLLQTAGTCGVSDDSLGSLLGPRTAAVFRPRPGDSLPS",,400 nM,
"ADAM8 prodomain peptide SEQ ID NO: 14 (peptide, not shown: small tags and cut ends) MIAPSRPWALMEQYEVVLPRRLPGPRVRRALPSHLGLHPERVSYVLGATGHNFTLHLRKNRDLLGSGYTETYTAANGSEVTEQPRGQDHCFYQGHVEGYPDSAASLSTCAGLRGFFQVGSDLHLIEPLDEGGEGGRHAVYQAEHLLQTAGTCGVSDDSLGSLLGPRTAAVFRPRPGDSLPS",,1400 nM and 2300 nM,
"ADAM8 prodomain peptide SEQ ID NO: 15 (peptide, not shown: small tags and cut ends) MIAPSRPWALMEQYEVVLPRRLPGPRVRGALPSHLGLHPERVSYVLGATGHNFTLHLRKNRDLLGSGYTETYTAANGSEVTEQPRGQDHSFYQGHVEGYPDSAASLSTSAGLRGFFQVGSDLHLIEPLDEGGEGGRHAVYQAEHLLQTAGTSGVSDDSLGSLLGPRTAAVFRPRPGDSLPS",,,45
"ADAM8 prodomain peptide SEQ ID NO: 17 (peptide, not shown: small tags and cut ends) MIAPSRPWALMEQYEVVLPWRLPGPKVRKALPSHLGLHPERVSYVLGATGHNFTLHLRKNRDLLGSGYTETYTAANGSEVTEQPRGQDHSFYQGHVEGYPDSAASLSTSAGLRGFFQVGSDLHLIEPLDEGGEGGRHAVYQAEHLLQTAGTSGVSDDSLGSLLGPRTAAVFRPRPGDSLPS",,,51

# The next lines start with the values.
percent inhibition of ADAM8 (cleavage of fluorescence energy transfer substrate PEPDAB064 or PEPDAB013) (% inhibition at 5 uM),IC50 for inhibition of ADAM8 (cleavage of fluorescence energy transfer substrate PEPDAB064 or PEPDAB013),percent inhibition of ADAM8 (cleavage of fluorescence energy transfer substrate PEPDAB064 or PEPDAB013) (% inhibition at 4.8 uM),Binder
,2800 nM and 2300 nM,,"wild type human ADAM8 prodomain peptide SEQ ID NO: 2 (peptide, not shown: small tags and cut ends) MIAPSRPWALMEQYEVVLPWRLPGPRVRRALPSHLGLHPERVSYVLGATGHNFTLHLRKNRDLLGSGYTETYTAANGSEVTEQPRGQDHCFYQGHVEGYPDSAASLSTCAGLRGFFQVGSDLHLIEPLDEGGEGGRHAVYQAEHLLQTAGTCGVSDDSLGSLLGPRTAAVFRPRPGDSLPS"
,1800 nM and 3000 nM,,"SEQ ID NO: 15 (pegylated at C-terminus) (peptide, part only; not given: added cysteine residues and His tag, not shown: small tags and cut ends, 5 kDa maleimide PEG on an added cysteine near the C-terminus) chain, part: MIAPSRPWALMEQYEVVLPRRLPGPRVRGALPSHLGLHPERVSYVLGATGHNFTLHLRKNRDLLGSGYTETYTAANGSEVTEQPRGQDHSFYQGHVEGYPDSAASLSTSAGLRGFFQVGSDLHLIEPLDEGGEGGRHAVYQAEHLLQTAGTSGVSDDSLGSLLGPRTAAVFRPRPGDSLPS"
,24000 nM,,"SEQ ID NO: 17 (Pegylated on N-terminus) (peptide, part only; not given: added cysteine residues and His tag, not shown: small tags and cut ends, 5 kDa maleimide PEG on an introduced cysteine near the N-terminus) chain, part: MIAPSRPWALMEQYEVVLPWRLPGPKVRKALPSHLGLHPERVSYVLGATGHNFTLHLRKNRDLLGSGYTETYTAANGSEVTEQPRGQDHSFYQGHVEGYPDSAASLSTSAGLRGFFQVGSDLHLIEPLDEGGEGGRHAVYQAEHLLQTAGTSGVSDDSLGSLLGPRTAAVFRPRPGDSLPS"
,2700 nM and 2300 nM,,"SEQ ID NO: 14 (pegylated on 3 cysteines) (peptide, not shown: small tags and cut ends, 2 kDa maleimide PEG on all three cysteines (cysteines 105, 124 and 167 of SEQ ID NO: 1 numbering; positions 90, 109 and 152 of SEQ ID NO: 14)) MIAPSRPWALMEQYEVVLPRRLPGPRVRRALPSHLGLHPERVSYVLGATGHNFTLHLRKNRDLLGSGYTETYTAANGSEVTEQPRGQDHCFYQGHVEGYPDSAASLSTCAGLRGFFQVGSDLHLIEPLDEGGEGGRHAVYQAEHLLQTAGTCGVSDDSLGSLLGPRTAAVFRPRPGDSLPS"
